Source: patent publication US20160041181A1, “NMR ASSAY TO SCREEN PROTEIN-PROTEIN INTERACTION INHIBITORS” (RUTGERS, THE STATE UNIVERSITY OF NEW JERSEY, priority 2013, published 2016)
Non-standard residues stand in square brackets, D forms with d. No end group written: not given here.

Experiments:
Assay type in all cases: binding, influenza A/Udorn/307/1972 (H3N2)
[1] = biological target: T1, NS1A ED (Influenza A virus, UniProt P03495); assay: Dissociation constant for homodimerization of NS1A ED (dimer-monomer equilibrium); conditions: low salt pH 8 buffer
T1 construct: made in house; host or cells: Escherichia coli BL21(DE3)-Gold, pET21_NESG vector

[2] = biological target: T1, NS1A ED; conditions: 200 uM ED, 0, 50, 100, 200, 300 uM test peptide
[3] = biological target: T1, NS1A ED; assay: 1D 19F NMR assay of 5FW-labeled NS1A ED with designed peptide
Text: In one exemplary embodiment, the candidate compound is a D-peptide having a sequence dN-Y-F-Y-S-L-F-dQ-G (see FIG. 14). The peptide has the ability to bind NS1A at the site normally used to sequester CPSF30. This same site on NS1A is also responsible for cooperative homodimerization interactions that contribute to an alternative cooperative mechanism by which ED:ED domain interactions contribute to the free energy for binding dsRNA by NS1A.
One-dimensional (1D) ^19F NMR spectroscopy was performed locked and at 20° C. on a Varian INOVA 500 MHz spectrometer equipped with a room temperature 5-mm ^1H/^19F switchable probe at a frequency of 470.18 MHz. All ^19F NMR spectra were acquired using VNMRJ 2.1B and referenced to external neat trichlorofluoromethane, CFCl3. Typical 1D ^19F NMR acquisition parameters were as follows: a 20,000 Hz sweep width (42.5 ppm), a 0.35 s acquisition time, a 5 s relaxation delay time, and a 5.0 μs 90° pulse length.
^19F NMR is an ideal assay for characterizing binding and inhibition of the NS1A protein. Using 1D ^19F NMR, it was possible to identify the binding location of a designed peptide according to its proximity to the nearest ^19F labeled Trp amino acids (see FIG. 16A vs. FIG. 16B).

T1 sequence (P03495 85-215): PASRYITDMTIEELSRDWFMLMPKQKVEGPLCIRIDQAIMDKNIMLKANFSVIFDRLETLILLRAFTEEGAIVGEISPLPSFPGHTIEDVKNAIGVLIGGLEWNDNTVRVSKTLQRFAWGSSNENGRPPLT

Row | Substance | Kd [1] | exchange regime at the binding site (15N-1H HSQC) ([2]; binding site) | exchange regime at other residues of the ED (15N-1H HSQC) ([2]; other residues of the ED) | exchange regime of residue W187 (15N-1H HSQC) ([2]; residue W187) | 19F chemical shift change of the Trp102 and Trp203 resonances ([3]; Trp102 and Trp203, listed as dAsn-Tyr-Phe-Tyr-Ser-Leu-Phe-dGln-Gly) | 19F chemical shift change of the Trp102 and Trp203 resonances ([3]; Trp102 and Trp203, listed as dN-Y-F-Y-S-L-F-dQ-G) | 19F chemical shift change of the Trp187 resonance ([3]; Trp187, listed as dAsn-Tyr-Phe-Tyr-Ser-Leu-Phe-dGln-Gly) | 19F chemical shift change of the Trp187 resonance ([3]; Trp187, listed as dN-Y-F-Y-S-L-F-dQ-G)
1 | 5fW NS1A ED: NS1A effector domain biosynthetically labeled with 5-fluoro-tryptophan | 7 ± 5 µM | – | – | – | – | – | – | –
2 | dAsn-Tyr-Phe-Tyr-Ser-Leu-Phe-dGln-Gly ([dN]YFYSLF[dQ]G) [test peptide, designed D-amino acid capped peptide based on the CPSF30 helix …] | – | slow-exchange, indicative of strong binding | fast-exchange, or weak binding | slow-exchange indicative of tight binding | no significant impact | no chemical shift perturbations | strong ^19F chemical shift change | strong chemical shift perturbations
